Measurements reported in US20130150294.

Test system: purified recombinant full-length Src from Upstate Biotechnology

purified pig kidney Na+/K+-ATPase (PKE)
Src-mediated tyrosine phosphorylation (commercial kinase assay kit): the Na+/K+-ATPase kept Src in an inactive state, addition of ouabain restored the kinase activity
